The target of test [1] is (pro)renin receptor (PRR), mouse (mouse) (UniProt Q9CYN9). Description: cell-based or functional assay.
Test [2] deals with (pro)renin receptor (PRR) on mpkCCD cells (UniProt Q9CYN9). Description: cell-based or functional assay.
Chain of (pro)renin receptor (PRR) on mpkCCD cells (Q9CYN9 18-350 limits assumed): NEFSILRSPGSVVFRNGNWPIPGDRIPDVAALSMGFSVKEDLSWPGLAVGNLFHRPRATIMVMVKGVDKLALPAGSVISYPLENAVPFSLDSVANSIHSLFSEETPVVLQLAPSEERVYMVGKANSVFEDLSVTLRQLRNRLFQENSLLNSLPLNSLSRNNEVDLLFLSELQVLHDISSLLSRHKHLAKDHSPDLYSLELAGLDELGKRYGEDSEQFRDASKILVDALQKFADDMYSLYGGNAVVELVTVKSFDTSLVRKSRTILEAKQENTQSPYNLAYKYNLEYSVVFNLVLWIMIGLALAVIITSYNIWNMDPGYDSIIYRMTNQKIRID

Chain of (pro)renin receptor (PRR), mouse (mouse) (Q9CYN9 18-350): as the sequence (Q9CYN9 18-350 limits assumed) above

As for “mouse prorenin (from UniProt P06281 22-402) (ligand)”, in test [1], the pressor response (delta MAP) to ICV mouse prorenin alone in C57BI/6J mice was found to be 31.3 mmHg, the pressor response (delta MAP) to ICV mouse prorenin in neuron-specific PRR knockout (Nefh-PRR) mice turned out to be 5 mmHg and the pressor response (delta MAP) to ICV mouse prorenin in wild-type mice was 41 mmHg.
“prorenin (cell culture experiments of Example 13) (ligand)” registered an ENaC activity (Ieq) in mpkCCD cells, 10 nM for 5 min (control group 1.17+0.05 µA/cm2) in test [2] of 3.16 µA/cm2.
Same read-out and setting: the value for “renin (cell culture experiments of Example 13) (enzyme)” was 1.58 µA/cm2.

Values taken from patent US20150025013A1.
